A word on the Kd: it is the free concentration of one partner at which half of the binding sites on the other are occupied at equilibrium, for simple one-to-one binding.

Sequences and labels used below:
B9: ferrochelatase (FECH) (protein)
chain: GAKPQVQPQKRKPKTGILMLNMGGPETLGDVHDFLLRLFLDRDLMTLPIQNKLAPFIAKRRTPKIQEQYRRIGGGSPIKIWTSKQGEGMVKLLDELSPNTAPHKYYIGFRYVHPLTEEAIEEMERDGLERAIAFTQYPQYSCSTTGSSLNAIYRYYNQVGRKPTMKWSTIDRWPTHHLLIQCFADHILKELDHFPLEKRSEVVILFSAHSLPMSVVNRGDPYPQEVSATVQKVMERLEYCNPYRLVWQSKVGPMPWLGPQTDESIKGLCERGRKNILLVPIAFTSDHIETLYELDIEYSQVLAKECGVENIRRAESLNGNPLFSKALADLVHSHIQSNELCSKQLTLSCPLCVNPVCRETKSFFTSQQL

Common to all, as to assay: SPR
(In general: SPR reads the build-up and loss of mass on a sensor chip optically.)

In data set [1] the target is Adrenodoxin reductase (Homo sapiens) (UniProt P22570). The following applies: cited from earlier work.
Data set [2] shares this target. The following applies: cited from earlier work. This is another data set of the same source.
Data set [3] has as its target T1, adrenodoxin reductase (ADR) (Homo sapiens, UniProt P22570).
T1 chain: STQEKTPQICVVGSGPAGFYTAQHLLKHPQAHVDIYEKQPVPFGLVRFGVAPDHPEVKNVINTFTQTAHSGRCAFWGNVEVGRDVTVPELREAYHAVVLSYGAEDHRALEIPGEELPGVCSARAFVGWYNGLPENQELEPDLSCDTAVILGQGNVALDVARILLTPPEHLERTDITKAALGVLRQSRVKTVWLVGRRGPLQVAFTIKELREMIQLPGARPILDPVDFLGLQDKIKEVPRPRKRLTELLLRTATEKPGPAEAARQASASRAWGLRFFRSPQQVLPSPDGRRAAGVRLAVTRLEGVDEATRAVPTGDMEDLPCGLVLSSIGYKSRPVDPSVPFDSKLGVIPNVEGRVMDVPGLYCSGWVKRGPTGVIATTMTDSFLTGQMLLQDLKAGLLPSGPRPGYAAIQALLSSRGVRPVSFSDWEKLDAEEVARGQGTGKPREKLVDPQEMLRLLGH

For the data set “ferrochelatase (FECH)”, the target named is B9.
The data set “SPR” concerns the molecule itself.

As to Ferrochelatase (from UniProt P22830), the Kd in data set [1] is 2000 nM; in data set [2] it was 13000 nM.

B1: ferrochelatase (FECH) (protein)
chain: GAKPQVQPQKRKPKTGILMLNMGGPETLGDVHDFLLRLFLDRDLMTLPIQNKLAPFIAKRRTPKIQEQYRRIGGGSPIKIWTSKQGEGMVKLLDELSPNTAPHKYYIGFRYVHPLTEEAIEEMERDGLERAIAFTQYPQYSCSTTGSSLNAIYRYYNQVGRKPTMKWSTIDRWPTHHLLIQCFADHILKELDHFPLEKRSEVVILFSAHSLPMSVVNRGDPYPQEVSATVQKVMERLEYCNPYRLVWQSKVGPMPWLGPQTDESIKGLCERGRKNILLVPIAFTSDHIETLYELDIEYSQVLAKECGVENIRRAESLNGNPLFSKALADLVHSHIQSNELCSKQLTLSCPLCVNPVCRETKSFFTSQQL
modifications: 100 uM 5-nitroisatin
As to B1, the figures for the Kd (in data set [3]; in the data set with ferrochelatase (FECH)) were 13700 nM and 560 nM, respectively.

B2: ferrochelatase (FECH) (protein)
chain: GAKPQVQPQKRKPKTGILMLNMGGPETLGDVHDFLLRLFLDRDLMTLPIQNKLAPFIAKRRTPKIQEQYRRIGGGSPIKIWTSKQGEGMVKLLDELSPNTAPHKYYIGFRYVHPLTEEAIEEMERDGLERAIAFTQYPQYSCSTTGSSLNAIYRYYNQVGRKPTMKWSTIDRWPTHHLLIQCFADHILKELDHFPLEKRSEVVILFSAHSLPMSVVNRGDPYPQEVSATVQKVMERLEYCNPYRLVWQSKVGPMPWLGPQTDESIKGLCERGRKNILLVPIAFTSDHIETLYELDIEYSQVLAKECGVENIRRAESLNGNPLFSKALADLVHSHIQSNELCSKQLTLSCPLCVNPVCRETKSFFTSQQL
modifications: 100 uM 5-iodoisatin
With B2, the Kd in data set [3] was 14100 nM; with ferrochelatase (FECH), 540 nM.

B3: ferrochelatase (FECH) (protein)
chain: GAKPQVQPQKRKPKTGILMLNMGGPETLGDVHDFLLRLFLDRDLMTLPIQNKLAPFIAKRRTPKIQEQYRRIGGGSPIKIWTSKQGEGMVKLLDELSPNTAPHKYYIGFRYVHPLTEEAIEEMERDGLERAIAFTQYPQYSCSTTGSSLNAIYRYYNQVGRKPTMKWSTIDRWPTHHLLIQCFADHILKELDHFPLEKRSEVVILFSAHSLPMSVVNRGDPYPQEVSATVQKVMERLEYCNPYRLVWQSKVGPMPWLGPQTDESIKGLCERGRKNILLVPIAFTSDHIETLYELDIEYSQVLAKECGVENIRRAESLNGNPLFSKALADLVHSHIQSNELCSKQLTLSCPLCVNPVCRETKSFFTSQQL
modifications: NHS/EDC-treated immobilized FECH
Molecule B3 came in with a Kd with ferrochelatase (FECH) of roughly 500 nM.

B4: ferrochelatase (FECH) (protein)
chain: GAKPQVQPQKRKPKTGILMLNMGGPETLGDVHDFLLRLFLDRDLMTLPIQNKLAPFIAKRRTPKIQEQYRRIGGGSPIKIWTSKQGEGMVKLLDELSPNTAPHKYYIGFRYVHPLTEEAIEEMERDGLERAIAFTQYPQYSCSTTGSSLNAIYRYYNQVGRKPTMKWSTIDRWPTHHLLIQCFADHILKELDHFPLEKRSEVVILFSAHSLPMSVVNRGDPYPQEVSATVQKVMERLEYCNPYRLVWQSKVGPMPWLGPQTDESIKGLCERGRKNILLVPIAFTSDHIETLYELDIEYSQVLAKECGVENIRRAESLNGNPLFSKALADLVHSHIQSNELCSKQLTLSCPLCVNPVCRETKSFFTSQQL
modifications: 100 uM 5-methylisatin
With B4, the Kd was determined as 14300 nM in data set [3] and 570 nM with ferrochelatase (FECH).

B5: ferrochelatase (FECH) (protein)
chain: GAKPQVQPQKRKPKTGILMLNMGGPETLGDVHDFLLRLFLDRDLMTLPIQNKLAPFIAKRRTPKIQEQYRRIGGGSPIKIWTSKQGEGMVKLLDELSPNTAPHKYYIGFRYVHPLTEEAIEEMERDGLERAIAFTQYPQYSCSTTGSSLNAIYRYYNQVGRKPTMKWSTIDRWPTHHLLIQCFADHILKELDHFPLEKRSEVVILFSAHSLPMSVVNRGDPYPQEVSATVQKVMERLEYCNPYRLVWQSKVGPMPWLGPQTDESIKGLCERGRKNILLVPIAFTSDHIETLYELDIEYSQVLAKECGVENIRRAESLNGNPLFSKALADLVHSHIQSNELCSKQLTLSCPLCVNPVCRETKSFFTSQQL
modifications: 100 uM 5,7-dichloroisatin
In the case of B5, the figures for the dissociation constant Kd (in data set [3]; with ferrochelatase (FECH)) were 14700 nM and 580 nM, respectively.

B6: ferrochelatase (FECH) (protein)
chain: GAKPQVQPQKRKPKTGILMLNMGGPETLGDVHDFLLRLFLDRDLMTLPIQNKLAPFIAKRRTPKIQEQYRRIGGGSPIKIWTSKQGEGMVKLLDELSPNTAPHKYYIGFRYVHPLTEEAIEEMERDGLERAIAFTQYPQYSCSTTGSSLNAIYRYYNQVGRKPTMKWSTIDRWPTHHLLIQCFADHILKELDHFPLEKRSEVVILFSAHSLPMSVVNRGDPYPQEVSATVQKVMERLEYCNPYRLVWQSKVGPMPWLGPQTDESIKGLCERGRKNILLVPIAFTSDHIETLYELDIEYSQVLAKECGVENIRRAESLNGNPLFSKALADLVHSHIQSNELCSKQLTLSCPLCVNPVCRETKSFFTSQQL
modifications: 100 uM isatin
For the molecule B6, the Kd in data set [3] amounted to 3400 nM; with ferrochelatase (FECH), 600 nM.

B7: ferrochelatase (FECH) (protein)
chain: GAKPQVQPQKRKPKTGILMLNMGGPETLGDVHDFLLRLFLDRDLMTLPIQNKLAPFIAKRRTPKIQEQYRRIGGGSPIKIWTSKQGEGMVKLLDELSPNTAPHKYYIGFRYVHPLTEEAIEEMERDGLERAIAFTQYPQYSCSTTGSSLNAIYRYYNQVGRKPTMKWSTIDRWPTHHLLIQCFADHILKELDHFPLEKRSEVVILFSAHSLPMSVVNRGDPYPQEVSATVQKVMERLEYCNPYRLVWQSKVGPMPWLGPQTDESIKGLCERGRKNILLVPIAFTSDHIETLYELDIEYSQVLAKECGVENIRRAESLNGNPLFSKALADLVHSHIQSNELCSKQLTLSCPLCVNPVCRETKSFFTSQQL
modifications: 100 uM 5-fluoroisatin
For the molecule B7, the Kd is 13800 nM in data set [3] and 610 nM in the data set with ferrochelatase (FECH).

B8: ferrochelatase (FECH) (protein)
chain: GAKPQVQPQKRKPKTGILMLNMGGPETLGDVHDFLLRLFLDRDLMTLPIQNKLAPFIAKRRTPKIQEQYRRIGGGSPIKIWTSKQGEGMVKLLDELSPNTAPHKYYIGFRYVHPLTEEAIEEMERDGLERAIAFTQYPQYSCSTTGSSLNAIYRYYNQVGRKPTMKWSTIDRWPTHHLLIQCFADHILKELDHFPLEKRSEVVILFSAHSLPMSVVNRGDPYPQEVSATVQKVMERLEYCNPYRLVWQSKVGPMPWLGPQTDESIKGLCERGRKNILLVPIAFTSDHIETLYELDIEYSQVLAKECGVENIRRAESLNGNPLFSKALADLVHSHIQSNELCSKQLTLSCPLCVNPVCRETKSFFTSQQL
modifications: 100 uM 5-bromoisatin
B8: the Kd in data set [3] was found to be 15500 nM; with ferrochelatase (FECH), 530 nM. Regarding B9, the Kd is 550 nM in the data set “SPR” and 15200 nM in data set [3].

The values are drawn from article PMC7593955 (2020).
